# Results reported in patent US20240344138A1, “TARGETED THERAPIES IN CANCER” (Feng Biosciences, Inc, priority 2021, published 2024).
# Tests used:
# Type in all cases: in vivo, human
# [1] = test system: advanced colorectal cancers metastatic to liver (mCRC); assay: Phase 2 trial of navicixizumab, innate immune activating agent and PD-(L)1 agent (3L+), outcome by TME phenotype; set-up: mPFS: unit not given beside the values; details: 3L+ mCRC
# From the text: A phase 2 clinical trial is run to determine clinical benefit in patients with advanced colorectal cancers metastatic to liver (mCRC) treated with a triplet combination of navicixizumab, an innate immune activating agent, and a PD-(L)1 agent. In this setting, regorafenib or trifluoridine/tipiracil therapy typically yield a median PFS (mPFS) of ˜2 months and median OS (mOS) of ˜7 months. […] The analysis includes enrollment of 60 patients with prospectively defined, retrospective analysis of liver metastatic lesions by the classifying the TME phenotypes as A, IA, IS or ID.
# MSS+ advanced colorectal cancer patients (3L+) with liver metastases are treated with the triplet combination of navicixizumab, an anti-PD(L)1 therapy and an innate immune stimulating agent, such as the Dectin agonist Imprime PGG, the STING agonist BMS-986301 and the NLR agonist BMS-986299. ORR, mPFS, 3-month PFS rate, mOS and OS rate at 9 months are assessed across all TME phenotypes. […] patients received a greater clinical benefit than the standard of care for 3L+ mCRC with regorafenib or trifluoridine/tipiracil.
# [2] = test system: advanced metastatic hepatocellular carcinoma; assay: Single arm phase 2 first-line trial of bavituximab and immune checkpoint inhibitor, outcome by TME phenotype; set-up: 6 month progression-free survival (6-month PFS): concentration or dose not given beside the values
# Description: (§1) A single arm phase 2 clinical trial is run to determine whether advanced metastatic hepatocellular carcinoma tumor microenvironment phenotypes correlate to clinical responses when patients are treated with Bavituximab and an immune checkpoint inhibitor in the first-line setting. The analysis includes samples from 28 patients. RNA gene signatures are analyzed from tumor samples acquired before any treatments and TME phenotypes are determined. Patients are followed for clinical response, progression-free survival, and overall survival.
# (§2) Hepatocellular carcinoma patients receive a regimen of Bavituximab plus an immune checkpoint inhibitor (anti-PD-(L)1—i.e., an inhibitor to PD-1 or PD-L1) therapy. […] Twenty-eight (28) patients are enrolled, with equal representation across the 4 stromal phenotypes (7 in each phenotype). The correlation between each TME phenotype is tested against clinical outcome data. In patients that are biomarker positive, represented by immune active (IA) and immune suppressed (IS) phenotypes, the use of the regimen of Bavituximab/immune checkpoint inhibitor confers benefit in comparison to patients classified as biomarker negative, comprised of angiogenic (A) and immune desert (ID) TME phenotype classes, as shown in the TABLE 31.
# [3] = test system: recurrent/metastatic squamous carcinoma of head and neck (HNSCC); assay: Single arm phase 2 trial of bavituximab and immune checkpoint inhibitor after progression on an immune checkpoint inhibitor, outcome by TME phenotype
# Description: as §1, with “recurrent/metastatic squamous” for “advanced metastatic hepatocellular”, “carcinoma of head and neck (HNSCC)” for “carcinoma”, “following progression on an immune checkpoint inhibitor (e.g., nivolumab, pembrolizumab, durvalumab, atezolizumab, etc.).” for “in the first-line setting.”
# as §2, with “HNSCC” for “Hepatocellular carcinoma”, “In” for “In patients that are”, “positive patients,” for “positive,”, “32.” for “31.”
# [4] = test system: metastatic gliomas and glioblastoma; assay: Clinical trial of radiation, bavituximab and a checkpoint inhibitor, best objective response versus TME biomarker status
# Description: A clinical trial is run to treat metastatic gliomas and glioblastoma with a combination of radiation, the anti-phosphatidylserine (anti-PS) targeting antibody bavituximab, and a checkpoint inhibitor (CPI), such as a PD-(L)1, e.g. pembrolizumab or nivolumab. Tumor tissue samples from surgical resections of glioblastoma are RNA sequenced and TME phenotypes are determined. Patients are followed for ORR.
molecule,measurement,setting,value
"navicixizumab, an anti-PD(L)1 therapy and an innate immune stimulating agent (antibody, chains of the INN, looked up, V domains shown, with anti-PD(L)1 and innate immune stimulant) VH: QVQLVQSGAEVKKPGASVKISCKASGYSFTAYYIHWVKQAPGQGLEWIGYISNYNRATNYNQKFKGRVTFTTDTSTSTAYMELRSLRSDDTAVYYCARDYDYDVGMDYWGQGTLVTVSS VL: DIVMTQSPDSLAVSLGERATISCRASESVDNYGISFMKWFQQKPGQPPKLLIYAASNQGSGVPDRFSGSGSGTDFTLTISSLQAEDVAVYYCQQSKEVPWTFGGGTKVEIK VH2: QVQLVQSGAEVKKPGASVKVSCKASGYTFTNYWMHWVRQAPGQGLEWMGDINPSNGRTSYKEKFKRRVTLSVDKSSSTAYMELSSLRSEDTAVYFCTIHYDDKYYPLMDYWGQGTLVTVSS VL2: DIVMTQSPDSLAVSLGERATISCRASESVDNYGISFMKWFQQKPGQPPKLLIYAASNQGSGVPDRFSGSGSGTDFTLTISSLQAEDVAVYYCQQSKEVPWTFGGGTKVEIK",ORR,[1]; TME phenotype A (n = 12),25%
same,PFS rate (3 month),[1]; TME phenotype A (n = 12),30%
same,mOS,[1]; TME phenotype A (n = 12),12 mos
same,mPFS,[1]; TME phenotype A (n = 12),6
same,ORR,[1]; TME phenotype IA (n = 12),35%
same,OS rate (9 month),[1]; TME phenotype IA (n = 12),50%
same,PFS rate (3 month),[1]; TME phenotype IA (n = 12),30%
same,mOS,[1]; TME phenotype IA (n = 12),12 mos
same,mPFS,[1]; TME phenotype IA (n = 12),6
same,ORR,[1]; TME phenotype ID (n = 24),20%
same,OS rate (9 month),[1]; TME phenotype ID (n = 24),40%
same,PFS rate (3 month),[1]; TME phenotype ID (n = 24),30%
same,mOS,[1]; TME phenotype ID (n = 24),10 mos
same,mPFS,[1]; TME phenotype ID (n = 24),4
same,ORR,[1]; TME phenotype IS (n = 12),30%
same,OS rate (9 month),[1]; TME phenotype IS (n = 12),45%
same,PFS rate (3 month),[1]; TME phenotype IS (n = 12),30%
same,mOS,[1]; TME phenotype IS (n = 12),11 mos
same,mPFS,[1]; TME phenotype IS (n = 12),5
"Bavituximab/immune checkpoint inhibitor: bavituximab plus an immune checkpoint inhibitor (anti-PD-(L)1) (antibody, chains of the INN, looked up, V domains shown, plus immune checkpoint inhibitor) VH: EVQLQQSGPELEKPGASVKLSCKASGYSFTGYNMNWVKQSHGKSLEWIGHIDPYYGDTSYNQKFRGKATLTVDKSSSTAYMQLKSLTSEDSAVYYCVKGGYYGHWYFDVWGAGTTVTVSS VL: DIQMTQSPSSLSASLGERVSLTCRASQDIGSSLNWLQQGPDGTIKRLIYATSSLDSGVPKRFSGSRSGSDYSLTISSLESEDFVDYYCLQYVSSPPTFGAGTKLELK",6 month progression-free survival (6-month PFS),"[2]; all patients, first-line",~57.2%
same,Overall response rate (ORR),"[2]; all patients, first-line",~32%
same,overall survival (OS),"[2]; all patients, first-line",~20 months
"Bavituximab plus immune checkpoint inhibitor (antibody, chains of the INN, looked up, V domains shown, plus immune checkpoint inhibitor) VH: EVQLQQSGPELEKPGASVKLSCKASGYSFTGYNMNWVKQSHGKSLEWIGHIDPYYGDTSYNQKFRGKATLTVDKSSSTAYMQLKSLTSEDSAVYYCVKGGYYGHWYFDVWGAGTTVTVSS VL: DIQMTQSPSSLSASLGERVSLTCRASQDIGSSLNWLQQGPDGTIKRLIYATSSLDSGVPKRFSGSRSGSDYSLTISSLESEDFVDYYCLQYVSSPPTFGAGTKLELK",Overall response rate (ORR),[3]; Biomarker Negative (n = 14),14.3%
same,overall survival (OS),[3]; Biomarker Negative (n = 14),7.8 months
same,progression free survival (PFS),[3]; Biomarker Negative (n = 14),2.5 months
same,Overall response rate (ORR),[3]; Biomarker Positive (n = 14),36.4%
same,overall survival (OS),[3]; Biomarker Positive (n = 14),11.2 months
same,progression free survival (PFS),[3]; Biomarker Positive (n = 14),5.5 months
same,Overall response rate (ORR),[3]; TME phenotype A (n = 7),14.3%
same,overall survival (OS),[3]; TME phenotype A (n = 7),8.6 months
same,progression free survival (PFS),[3]; TME phenotype A (n = 7),2.6 months
same,Overall response rate (ORR),[3]; TME phenotype IA (n = 7),28.6%
same,overall survival (OS),[3]; TME phenotype IA (n = 7),11.0 months
same,progression free survival (PFS),[3]; TME phenotype IA (n = 7),5.3 months
same,Overall response rate (ORR),[3]; TME phenotype ID (n = 7),14.3%
same,overall survival (OS),[3]; TME phenotype ID (n = 7),7.0 months
same,progression free survival (PFS),[3]; TME phenotype ID (n = 7),2.4 months
same,Overall response rate (ORR),[3]; TME phenotype IS (n = 7),42.9%
same,overall survival (OS),[3]; TME phenotype IS (n = 7),11.4 months
same,progression free survival (PFS),[3]; TME phenotype IS (n = 7),5.7 months
same,6-month progression free survival (PFS) rate,[2]; Biomarker Negative (n = 14),35.7%
same,Overall response rate (ORR),[2]; Biomarker Negative (n = 14),14%
same,overall survival (OS),[2]; Biomarker Negative (n = 14),16.2 months
same,6-month progression free survival (PFS) rate,[2]; Biomarker Positive (n = 14),78.6%
same,Overall response rate (ORR),[2]; Biomarker Positive (n = 14),50%
same,overall survival (OS),[2]; Biomarker Positive (n = 14),23.8 months
same,6-month progression free survival (PFS) rate,[2]; TME phenotype A (n = 7),42.8%
same,Overall response rate (ORR),[2]; TME phenotype A (n = 7),14%
same,overall survival (OS),[2]; TME phenotype A (n = 7),16.7 months
same,6-month progression free survival (PFS) rate,[2]; TME phenotype IA (n = 7),71.4%
same,Overall response rate (ORR),[2]; TME phenotype IA (n = 7),43%
same,overall survival (OS),[2]; TME phenotype IA (n = 7),22.4 months
same,6-month progression free survival (PFS) rate,[2]; TME phenotype ID (n = 7),28.6%
same,Overall response rate (ORR),[2]; TME phenotype ID (n = 7),14%
same,overall survival (OS),[2]; TME phenotype ID (n = 7),15.7 months
same,6-month progression free survival (PFS) rate,[2]; TME phenotype IS (n = 7),85.7%
same,Overall response rate (ORR),[2]; TME phenotype IS (n = 7),57%
same,overall survival (OS),[2]; TME phenotype IS (n = 7),25.2 months
"bavituximab, checkpoint inhibitor, and radiation (antibody, chains of the INN, looked up, V domains shown, with checkpoint inhibitor and radiation) VH: EVQLQQSGPELEKPGASVKLSCKASGYSFTGYNMNWVKQSHGKSLEWIGHIDPYYGDTSYNQKFRGKATLTVDKSSSTAYMQLKSLTSEDSAVYYCVKGGYYGHWYFDVWGAGTTVTVSS VL: DIQMTQSPSSLSASLGERVSLTCRASQDIGSSLNWLQQGPDGTIKRLIYATSSLDSGVPKRFSGSRSGSDYSLTISSLESEDFVDYYCLQYVSSPPTFGAGTKLELK","Best Objective Response CR, number of patients",[4]; TME A,0
same,"Best Objective Response PD, number of patients",[4]; TME A,4
same,"Best Objective Response PR, number of patients",[4]; TME A,1
same,"Best Objective Response SD, number of patients",[4]; TME A,1
same,"Best Objective Response CR, number of patients",[4]; TME IA,0
same,"Best Objective Response PD, number of patients",[4]; TME IA,4
same,"Best Objective Response PR, number of patients",[4]; TME IA,3
same,"Best Objective Response SD, number of patients",[4]; TME IA,2
same,"Best Objective Response CR, number of patients",[4]; TME ID,0
same,"Best Objective Response PD, number of patients",[4]; TME ID,6
same,"Best Objective Response PR, number of patients",[4]; TME ID,1
same,"Best Objective Response SD, number of patients",[4]; TME ID,1
same,"Best Objective Response CR, number of patients",[4]; TME IS,0
same,"Best Objective Response PD, number of patients",[4]; TME IS,4
same,"Best Objective Response PR, number of patients",[4]; TME IS,4
same,"Best Objective Response SD, number of patients",[4]; TME IS,4
